Assay results as given in patent US20210340273A1 (INHLBRX, published 2021).
Substitutions are numbered along the chain they refer to.

B1: 14B5 sdAb-Fc (Fc fusion, not shown: a dimerising Fc or GST)
chain: QVQLVQSGGGLVQAGDSLTLSCAVSERPFGTYAMGWFRQAPGRERDLVAAVSRNGGASQYGDSVKGRFSISRDNIKNTMYLQMNSLKPEDTAVYYCAARSAAYSRSSEVYTGKDEYYYWGQGTQVTVKP
notes: Camelid derived sdAb tested as sdAb-Fc; also called L14B5
B2: hz14B5v16 sdAb-Fc (Fc fusion)
chain: EVQLVESGGGEVQPGGSLRLSCAASERPFGTYAMGWFRQAPGKERDLVAAVSRNAGASQYGEFVKGRFTISRDNAKNTMYLQMSSLRAEDTAVYYCAARSAAYSRSSEVYTGKDEYYYWGQGTLVTVKP
notes: Humanized variant of 14B5, linked to a human Fc; not shown: human Fc
B3: 12E9 sdAb-Fc (Fc fusion, not shown: a dimerising Fc or GST)
chain: QVQLVQSGGGLVQAGGSLRLSCAASRRPFSSKTMAWFRQTPGKEREFVAAVRWIGGATRYTDSVKGRFSISKDNAINTVYLQMNSLKSEDTAVYYCAAGQAWGTKFTDYSDWGQGTQVTVKP
notes: Camelid derived sdAb tested as sdAb-Fc; also called L12E9; 12E9-Fc
B4: 16G10 sdAb-Fc (Fc fusion, not shown: a dimerising Fc or GST)
chain: QVQLLQSGGGLVQAGGSLILSCAVSGRPFSSSAMGWFRQAPGKERETVAAVSRNGGSSYYADFVKGRFTISRDNDKNTVYLQMNSLKPEDTAVYYCAARSAAYSRSSETYTEKHDYTYWGQGTQVTVKP
notes: Camelid derived sdAb tested as sdAb-Fc; also called L16G10
B5: hz14B5v2 sdAb-Fc (Fc fusion)
chain: B2 chain with A55G, G61A, F63S, M79L
notes: as for B2
B6: hz14B5v18 sdAb-Fc (Fc fusion)
chain: B2 chain with G30S, T31S, Q59Y, G61A, F63S, M79V
notes: as for B2
B7: hz14B5v19 sdAb-Fc (Fc fusion)
chain: B2 chain with E26G, Q59Y, G61A, F63S, M79V
notes: as for B2
B8: hz14B5v20 sdAb-Fc (Fc fusion)
chain: B2 chain with E26G, G30S, T31S, Q59Y, G61A, F63S, M79V
notes: as for B2
B9: hz16G10v7 sdAb-Fc (Fc fusion)
chain: EVQLVESGGGEVQPGGSLRLSCAASGRPFSSSAMGWFRQAPGKERETVAAVSRNTGSSYYAESVKGRFTISRDNAKNTVYLQMSSLRAEDTAVYYCAARSAAYSRSSETYTEKHDYTYWGQGTLVTVKP
notes: Humanized variant of 16G10, linked to a human Fc; not shown: human Fc
B10: hz16G10v10 sdAb-Fc (Fc fusion)
chain: B9 chain with T55A, E62D, S63F
notes: as for B9
B11: hz12E9v5 sdAb-Fc (Fc fusion)
chain: EVQLVESGGGEVQPGGSLRLSCAASRRPFSSKTMAWFRQAPGKEREFVAAVRWIGGATRYTESVKGRFTISRDNAKNTLYLQMSSLRAEDTAVYYCAAGQAWGTKFTDYSDWGQGTLVTVKP
notes: Humanized variant of 12E9, linked to a human Fc; not shown: human Fc
B12: hz12E9v7 sdAb-Fc (Fc fusion)
chain: B11 chain with E62D, T69S, R72K, L79V
notes: as for B11
B13: hz12E9v8 sdAb-Fc (Fc fusion)
chain: B11 chain with T61A, K76I, L79V, S84N, R87K, A88S
notes: as for B11
B14: 4D3 sdAb-Fc (Fc fusion, not shown: a dimerising Fc or GST)
chain: B3 chain with V5Q, Q6E, M83T, A101T, Q117L
notes: Camelid derived sdAb tested as sdAb-Fc
B15: 7E1 sdAb-Fc (Fc fusion, not shown: a dimerising Fc or GST)
chain: QVQLVQSGGGLVQAGASLRLSCVASGRTRSLRTMAWFRQAPGKERIFVAAISWRSDSTYYADSVKGRFTISRDNAKNTAYLQMNTLKPEDTAVYYCAAGGGWLATTPDEYTYWGQGTLVTVKP
notes: as for B14
B16: 14F4 sdAb-Fc (Fc fusion, not shown: a dimerising Fc or GST)
chain: QVQLQESGGGLMQAGDSLRLSCVVSGVTWNSYTMAWFRQAPGKEREFVAAIRWTVDTTYYADFVKGRFTISRDYAKKTMYLQMNNLKPEDAAVYYCAVGRKWPKADDYWGQGTLVTVKP
notes: as for B14
B17: cx3497, 5T4-targeted constrained CD3 engaging construct with a 41BB binding domain (bispecific antibody)
chain 1: QVQLVQSGGGLVQAGGSLRLSCAASRRPFSSKTMAWFRQTPGKEREFVAAVRWIGGATRYTDSVKGRFSISKDNAINTVYLQMNSLKSEDTAVYYCAAGQAWGTKFTDYSDWGQGTQVTVKPDKTHTCPPCPAPELLGGPSVFLFPPKPKDTLMISRTPEVTCVVVDVSHEDPEVKFNWYVDGVEVHNAKTKPREEQYNSTYRVVSVLTVLHQDWLNGKEYKCKVSNKALPAPIEKTISKAKGQPREPQVYTLPPCRDELTKNQVSLWCLVKGFYPSDIAVEWESNGQPENNYKTTPPVLDSDGSFFLYSKLTVDKSRWQQGNVFSCSVMHEALHNHYTQKSLSLSPTGGSGGGGIEPDIGGSGGSEVQLVESGGGLVQPGGSLRLSCAASGFTFNTYAMNWVRQAPGKCLEWVARIRSKYNNYATYYADSVKGRFTISRDDAKNTLYLQMSSLRAEDTAVYYCVRHGNFGNSYVSWFAYWGQGTLVTVKPQVQLLQSGGGLVQAGGSLILSCAVSGRPFSSSAMGWFRQAPGKERETVAAVSRNGGSSYYADFVKGRFTISRDNDKNTVYLQMNSLKPEDTAVYYCAARSAAYSRSSETYTEKHDYTYWGQGTQVTVKP
chain 2: not shown
notes: Heterodimeric multispecific construct (5T4 x CD3 x 41BB)
B18: cx3253, 5T4-targeted constrained CD3 engaging construct with a 41BB binding domain (bispecific antibody)
chain 1: QVQLVQSGGGLVQAGGSLRLSCAASRRPFSSKTMAWFRQTPGKEREFVAAVRWIGGATRYTDSVKGRFSISKDNAINTVYLQMNSLKSEDTAVYYCAAGQAWGTKFTDYSDWGQGTQVTVKPDKTHTCPPCPAPELLGGPSVFLFPPKPKDTLMISRTPEVTCVVVDVSHEDPEVKFNWYVDGVEVHNAKTKPREEQYNSTYRVVSVLTVLHQDWLNGKEYKCKVSNKALPAPIEKTISKAKGQPREPQVYTLPPCRDELTKNQVSLWCLVKGFYPSDIAVEWESNGQPENNYKTTPPVLDSDGSFFLYSKLTVDKSRWQQGNVFSCSVMHEALHNHYTQKSLSLSPTGGSGGGGIEPDIGGSGGSEVQLVESGGGLVQPGGSLRLSCAASGFTFNTYAMNWVRQAPGKCLEWVARIRSKYNNYATYYADSVKGRFTISRDDAKNTLYLQMSSLRAEDTAVYYCVRHGNFGNSYVSWFAYWGQGTLVTVKPQVQLVQSGGGLVQAGASLRLSCVASGRTRSLRTMAWFRQAPGKERIFVAAISWRSDSTYYADSVKGRFTISRDNAKNTAYLQMNTLKPEDTAVYYCAAGGGWLATTPDEYTYWGQGTLVTVKP
chain 2: not shown
notes: as for B17

These binders were tested against T1, human 5T4 (trophoblast glycoprotein), endogenous on the cell surface (human, UniProt Q13641 32-420) (assay: flow cytometry (FL4H median), sdAb-Fc titrated on 5T4-positive T47D cells).
T1 construct: also called TPBG; 5T4 oncofetal antigen
T1 sequence: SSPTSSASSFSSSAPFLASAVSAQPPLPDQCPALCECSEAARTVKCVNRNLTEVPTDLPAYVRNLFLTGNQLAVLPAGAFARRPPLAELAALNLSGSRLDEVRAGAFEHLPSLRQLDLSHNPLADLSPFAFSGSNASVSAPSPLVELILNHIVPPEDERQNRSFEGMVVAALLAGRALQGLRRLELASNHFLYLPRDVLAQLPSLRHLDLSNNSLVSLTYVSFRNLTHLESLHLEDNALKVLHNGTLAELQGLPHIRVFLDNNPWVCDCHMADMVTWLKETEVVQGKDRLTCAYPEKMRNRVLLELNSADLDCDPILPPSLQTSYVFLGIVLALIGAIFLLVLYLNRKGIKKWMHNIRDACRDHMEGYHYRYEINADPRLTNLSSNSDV
Experimental: (§1) Specificity and relative affinity were assessed for purified sdAb-Fcs on 5T4-expressing cells. Binding of 5T4-sdAb-Fc fusion proteins was assessed by flow cytometry using 5T4-expressing cells. A titration series of the fusion protein was incubated with the 5T4-expressing cell lines (approximately 2.5×10⁴ to 5×10⁴ cells/well) for 30 minutes at 4 degrees Celsius in FACS Buffer (PBS 1% BSA, 0.1% NaN₃ pH 7.4) in 96 well plates. Following three wash steps in FACS buffer, an APC-conjugated anti-human Fcγ specific secondary antibody (Jackson ImmunoResearch) was added and incubated for 30 minutes at 4 degrees Celsius. Following three additional wash steps in FACS buffer bound antibody was detected via flow cytometry (IQue Intellicyte).
(§2) Humanized variant of the 5T4 sdAbs were tested for their ability to bind 5T4 expressing cells substantially as described in Example 2, and binding was compared to the parental sdAb. 5T4 expressing T47D cells were used in these studies. Results are shown in FIGS. 2A-2F, which confirm binding of the humanized variants. In some cases, binding was increased compared to the parental sdAb.
For B1, the “EC50 (read off the curve)” value was roughly 0.8 nM. For B2, the “EC50 (read off the curve)” value was roughly 2 nM.

Target: T1, human 5T4 (trophoblast glycoprotein), …
Assay: as above
Remark: another data set of the same source
Experimental: as §1, §2
For B3, the “EC50 (read off the curve)” value was roughly 0.2 nM. B1 was tested, and the “EC50 (read off the curve)” value was roughly 0.4 nM. In the case of B4, the “EC50 (read off the curve)” value is reported as roughly 0.9 nM.

Each binder was assayed against T1, human 5T4 (trophoblast glycoprotein), … (assay: flow cytometry, sdAb-Fc on 5T4 expressing T47D cells).
B5: binds. B6: binds. B7: binds. B8: binds. B9: binds. B10: binds.

Target: T1, human 5T4 (trophoblast glycoprotein), …
Assay: flow cytometry (FL4H median), sdAb-Fc titrated on 5T4-positive T47D cells
Remark: another data set of the same source
Experimental: as §1, §2
For B11, the “EC50 (read off the curve)” value was roughly 0.1 nM. In the case of B12, the “EC50 (read off the curve)” value is reported as roughly 0.1 nM. B13 was tested, and the “EC50 (read off the curve)” value was roughly 0.1 nM. For B3, the “EC50 (read off the curve)” value was roughly 0.1 nM.

What follows are binders tested against T1, human 5T4 (trophoblast glycoprotein), … (assay: flow cytometry (FL4), sdAb-Fc titrated on HEK-293 freestyle (293FS) cells endogenously expressing 5T4).
Experimental: FIGS. 1A-B depict the ability of various single domain antibodies targeting 5T4 to bind cell surface 5T4. Binding was assessed by flow cytometry on HEK-293 freestyle cells endogenously expressing 5T4.
as §1
In the case of B14, the “EC50 (read off the curve)” value is reported as roughly 0.2 nM. For B3, the “EC50 (read off the curve)” value was roughly 0.1 nM. With B15 the “EC50 (read off the curve)” value was roughly 0.2 nM. With B1 the “EC50 (read off the curve)” value was roughly 0.5 nM. In the case of B4, the “EC50 (read off the curve)” value is reported as roughly 1 nM. With B16 the “EC50 (read off the curve)” value was roughly 1 nM.

The binders below were run against T1, human 5T4 (trophoblast glycoprotein), … (assay: flow cytometry on 5T4-positive OVCAR5 (Ovcar-5) cells, anti-human IgG secondary; titration).
Experimental: FIGS. 4A-4M depict the binding of various 5T4-target constrained CD3 engaging constructs to the 5T4 positive Ovcar-5 cell line (top left) and the lack of binding to primary human T-cells (top right). […] Binding was assessed by flow cytometry using an anti-human IgG APC secondary antibody. The histograms display the normalized cell counts vs fluorescence at 200 nM of each construct.
Binding of exemplary 5T4-targeting constrained CD3 engaging constructs set forth in Table E3 to CD3 on the surface of primary T cells and 5T4 expressing cells (Ovcar-5) was assessed by flow cytometry. The T cells were primary T-cells that were negatively enriched from PBMCs isolated from healthy human donor leukopaks. Bound construct was detected with fluorophore-conjugated secondary antibodies specific for the human Fc (anti-human IgG APC secondary antibody) and binding was measured by flow cytometry. Cells incubated with secondary antibody only served as negative controls. […] The results, from flow cytometry histograms displaying normalized cell counts versus fluorescence at 200 nM of each construct, are shown in FIG. 4A (cx3253), FIG. 4B (cx3264), FIG. 4C (cx3497), FIG. 4D (cx3499), FIG. 4E (cx3547), FIG. 4F (cx3546), FIG. 4G (cx4224), FIG. 4H (cx4913), FIG. 4I (cx3265), […] (cx4912), FIG. 4K (cx3262), FIG. 4L (cx4911), and FIG. 4M (cx4910). […]
With B17 the “EC50 (read off the curve)” value was roughly 0.7 nM.

These binders were tested against T1, human 5T4 (trophoblast glycoprotein), … (assay: printed as Affinity 5T4; apparent affinity from flow cytometry titration on Ovcar-5 cells).
Experimental: Binding of exemplary 5T4-targeting constrained CD3 engaging constructs set forth in Table E3 to CD3 on the surface of primary T cells and 5T4 expressing cells (Ovcar-5) was assessed by flow cytometry. The T cells were primary T-cells that were negatively enriched from PBMCs isolated from healthy human donor leukopaks. Bound construct was detected with fluorophore-conjugated secondary antibodies specific for the human Fc (anti-human IgG APC secondary antibody) and binding was measured by flow cytometry. Cells incubated with secondary antibody only served as negative controls. The results, from flow cytometry histograms displaying normalized cell counts versus fluorescence at 200 nM of each construct, are shown in FIG. 4A (cx3253), FIG. 4B (cx3264), FIG. 4C (cx3497), FIG. 4D (cx3499), FIG. 4E (cx3547), FIG. 4F (cx3546), FIG. 4G (cx4224), FIG. 4H (cx4913), FIG. 4I (cx3265), […] (cx4912), FIG. 4K (cx3262), FIG. 4L (cx4911), and FIG. 4M (cx4910). […] However, as shown in the top right and bottom panels of each of the figures, the same constructs were not able to bind to T cells in isolation.
Table E4 summarizes the affinity of exemplary molecules for 5T4 or CD3, as determined from flow cytometry, in these studies.
B17 showed a Kd of 0.646 nM. In the case of B18, the Kd is reported as 0.12 nM.
